Source: paper PMC10998612

Columns and labels:
[1] = molecular target: fluorescein-labeled peptide corresponding to repeat 3 (PPP1R15A^420-466), wild type (human) (UniProt O75807); assay: fluorescence polarisation; 5 µL 100 nM fluorescein-labeled peptide probe mixed with 5 µL of increasing concentrations of eIF2 trimer or eIF2α-NTD; 20 mM Tris pH 7.4, 0.1 M NaCl, 1 mM TCEP, 0.01% Triton X-100; one-site binding fit; three experiments
[2] = molecular target: extended PPP1R15A^325-636, wild type (bacterially expressed) (human) (UniProt O75807)
[3] = molecular target: eIF2 trimer, endogenous (detected by its α subunit), P05198;P20042;P41091; assay: GFP immunoprecipitation (co-IP) and immunoblot, quantified; details: HEK293T cells; 20% (v/v) of immunoprecipitation fractions analyzed; parent: est. 0.14; read off a plot

extended PPP1R15A^325-636, wild type (bacterially expressed) (human), sequence (O75807 325-636): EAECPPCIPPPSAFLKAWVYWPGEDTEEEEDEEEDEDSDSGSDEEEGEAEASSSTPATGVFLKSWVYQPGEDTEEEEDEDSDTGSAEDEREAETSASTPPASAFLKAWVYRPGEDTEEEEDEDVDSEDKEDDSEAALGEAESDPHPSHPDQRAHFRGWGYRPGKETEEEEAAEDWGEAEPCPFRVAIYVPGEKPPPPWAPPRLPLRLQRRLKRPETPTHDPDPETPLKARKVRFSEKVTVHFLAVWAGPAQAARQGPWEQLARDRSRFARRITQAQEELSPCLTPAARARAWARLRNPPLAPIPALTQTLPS
full-length human PPP1R15A-GFP fusion protein, wild type, sequence (O75807 whole entry, stated change not applied, the tested form may be a part): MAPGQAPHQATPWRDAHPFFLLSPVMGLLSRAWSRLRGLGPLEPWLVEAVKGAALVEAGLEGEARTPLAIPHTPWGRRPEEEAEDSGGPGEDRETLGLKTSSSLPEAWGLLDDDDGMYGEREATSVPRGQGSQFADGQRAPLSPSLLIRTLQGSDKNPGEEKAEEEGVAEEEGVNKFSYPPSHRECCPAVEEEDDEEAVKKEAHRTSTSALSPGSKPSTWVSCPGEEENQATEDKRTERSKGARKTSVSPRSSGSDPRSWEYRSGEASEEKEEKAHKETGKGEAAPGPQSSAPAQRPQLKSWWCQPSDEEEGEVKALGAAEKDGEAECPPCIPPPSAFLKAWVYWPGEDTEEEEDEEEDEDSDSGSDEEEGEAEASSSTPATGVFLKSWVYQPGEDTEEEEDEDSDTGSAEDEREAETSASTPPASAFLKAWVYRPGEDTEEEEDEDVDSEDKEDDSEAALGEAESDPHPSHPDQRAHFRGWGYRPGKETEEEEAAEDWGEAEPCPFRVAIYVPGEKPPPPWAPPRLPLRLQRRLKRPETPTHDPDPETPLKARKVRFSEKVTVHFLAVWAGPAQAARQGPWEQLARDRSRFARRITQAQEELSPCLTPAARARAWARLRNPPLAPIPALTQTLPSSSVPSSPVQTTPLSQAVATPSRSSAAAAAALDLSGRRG
fluorescein-labeled peptide corresponding to repeat 3 (PPP1R15A^420-466), wild type (human), sequence (O75807 420-466): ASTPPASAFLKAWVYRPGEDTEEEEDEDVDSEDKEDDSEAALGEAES
eIF2 trimer (recombinant, not phosphorylated), sequence (P05198 whole entry): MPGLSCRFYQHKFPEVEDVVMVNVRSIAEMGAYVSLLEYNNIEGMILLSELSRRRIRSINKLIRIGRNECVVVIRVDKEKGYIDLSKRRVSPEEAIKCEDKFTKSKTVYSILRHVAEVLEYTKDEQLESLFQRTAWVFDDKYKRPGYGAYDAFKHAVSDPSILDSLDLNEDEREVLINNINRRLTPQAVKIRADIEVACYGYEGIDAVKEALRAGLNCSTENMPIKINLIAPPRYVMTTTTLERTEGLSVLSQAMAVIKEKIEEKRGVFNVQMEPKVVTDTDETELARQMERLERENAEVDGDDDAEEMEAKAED
eIF2 trimer (recombinant, not phosphorylated), sequence (P20042 whole entry): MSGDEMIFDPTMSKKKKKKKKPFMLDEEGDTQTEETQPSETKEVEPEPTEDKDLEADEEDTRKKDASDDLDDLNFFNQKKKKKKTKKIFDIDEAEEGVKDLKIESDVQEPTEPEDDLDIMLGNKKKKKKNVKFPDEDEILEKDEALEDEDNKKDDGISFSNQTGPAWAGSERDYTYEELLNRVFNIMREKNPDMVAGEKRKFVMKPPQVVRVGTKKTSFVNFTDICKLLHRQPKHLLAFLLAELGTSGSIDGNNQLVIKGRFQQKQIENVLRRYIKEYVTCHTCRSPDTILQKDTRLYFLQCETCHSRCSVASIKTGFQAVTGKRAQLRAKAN
eIF2 trimer (recombinant, not phosphorylated), sequence (P41091 whole entry): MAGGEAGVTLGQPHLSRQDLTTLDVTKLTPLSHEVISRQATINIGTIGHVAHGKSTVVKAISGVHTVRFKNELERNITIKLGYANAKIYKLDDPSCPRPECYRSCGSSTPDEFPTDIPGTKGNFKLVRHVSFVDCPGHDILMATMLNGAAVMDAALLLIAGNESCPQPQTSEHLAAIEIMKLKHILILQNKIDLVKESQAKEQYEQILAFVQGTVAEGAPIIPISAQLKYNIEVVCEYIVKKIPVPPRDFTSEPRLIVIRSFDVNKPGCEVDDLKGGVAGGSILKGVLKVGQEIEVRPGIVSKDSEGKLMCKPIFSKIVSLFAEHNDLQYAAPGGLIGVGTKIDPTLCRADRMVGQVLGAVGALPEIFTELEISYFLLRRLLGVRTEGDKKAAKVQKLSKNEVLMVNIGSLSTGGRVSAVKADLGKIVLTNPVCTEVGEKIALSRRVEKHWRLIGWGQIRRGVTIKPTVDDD
eIF2^P trimer (phosphorylated eIF2), sequence (P05198 whole entry): as the sequence (P05198 whole entry) above
eIF2^P trimer (phosphorylated eIF2), sequence (P20042 whole entry): as the sequence (P20042 whole entry) above
eIF2^P trimer (phosphorylated eIF2), sequence (P41091 whole entry): as the sequence (P41091 whole entry) above

eIF2 trimer (recombinant, not phosphorylated) (from UniProt P05198 1-315; P20042 1-333; P41091 1-472) (complex)
K (1/2max) [1]: 220 nM

eIF2^P trimer (phosphorylated eIF2) (from UniProt P05198 1-315; P20042 1-333; P41091 1-472) (complex)
dephosphorylation of the eIF2^P trimer in vitro (PhosTag SDS-PAGE, kcat/Km) by the extended PPP1R15A^325-636-PP1-G-actin holophosphatase against the core PPP1R15A^533-624-PP1-G-actin holophosphatase (fold (kcat/Km)) [2]: 10

full-length human PPP1R15A-GFP fusion protein, wild type (from UniProt O75807) F338A; W342A; F386A; W389A; F428A; W432A; F479A; W482A
other: eIF2α/PP1 signal ratio [3]: 0.0084
